Experiments:
AncSZ = test: phosphorylation enrichment, bacterial display (enrichment ratio); higher = better substrate or ligand; peptides without Tyr show the background
EPHB1 = EPHB1 (UniProt P54762); test: as above
EPHB2 = EPHB2 (UniProt P29323); test: as above
FGFR1 = FGFR1 (UniProt P11362); test: as above
FGFR3 = FGFR3 (UniProt P22607); test: as above
Fer (mouse) = test: as above
Fes = Fes (UniProt P07332); test: as above
Fyn = Fyn (UniProt P06241); test: as above
Hck = Hck (UniProt P08631); test: as above
Jak2 = Jak2 (UniProt O60674); test: as above
MERTK = MERTK (UniProt Q12866); test: as above
c-Abl (mouse) = test: as above
c-Src = test: as above
Grb2 SH2 = Grb2 SH2 (UniProt P62993); test: SH2 binding enrichment of the phosphorylated peptide, bacterial display (enrichment ratio); higher = better substrate or ligand; peptides without Tyr show the background
SHP2-C SH2 = test: as above
c-Src SH2 = test: as above
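Throughout, for SH2 binding enrichment of the phosphorylated peptide, bacterial display: peptide library displayed on the E. coli surface as eCPX fusions, selected cells deep-sequenced, score is each peptide's frequency after selection divided by its frequency in the input.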
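Throughout, for phosphorylation enrichment, bacterial display: 11-residue human phosphosite peptides and single-mutation variants displayed on the E. coli surface, counted by deep sequencing, each peptide's frequency after selection divided by its frequency in the unselected input library; frequency after pTyr selection over input frequency; kinase dosed for 20-30% of maximal phosphorylation in three min.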

Fes, sequence (P07332 whole entry, looked up): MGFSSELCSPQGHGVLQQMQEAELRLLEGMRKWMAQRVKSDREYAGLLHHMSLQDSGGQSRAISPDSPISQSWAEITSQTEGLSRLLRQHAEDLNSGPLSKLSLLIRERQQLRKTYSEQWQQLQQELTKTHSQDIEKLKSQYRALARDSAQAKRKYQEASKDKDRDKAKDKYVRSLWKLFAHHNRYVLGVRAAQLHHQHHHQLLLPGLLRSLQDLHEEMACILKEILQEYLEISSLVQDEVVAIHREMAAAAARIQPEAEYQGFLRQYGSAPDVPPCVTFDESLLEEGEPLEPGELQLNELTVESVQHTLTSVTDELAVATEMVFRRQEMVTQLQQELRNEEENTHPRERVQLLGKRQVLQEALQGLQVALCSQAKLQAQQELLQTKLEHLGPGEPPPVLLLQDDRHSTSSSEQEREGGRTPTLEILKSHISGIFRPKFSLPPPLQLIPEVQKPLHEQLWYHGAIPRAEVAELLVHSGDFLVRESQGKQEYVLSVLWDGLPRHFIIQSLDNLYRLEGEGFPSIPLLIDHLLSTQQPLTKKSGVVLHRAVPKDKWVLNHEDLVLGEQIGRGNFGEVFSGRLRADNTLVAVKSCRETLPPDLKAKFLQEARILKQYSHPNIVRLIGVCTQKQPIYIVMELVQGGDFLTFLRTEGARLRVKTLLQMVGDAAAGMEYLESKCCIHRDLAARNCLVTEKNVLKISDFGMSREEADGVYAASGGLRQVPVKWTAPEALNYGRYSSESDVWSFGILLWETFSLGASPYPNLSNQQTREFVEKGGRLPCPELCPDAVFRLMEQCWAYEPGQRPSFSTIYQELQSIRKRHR
Jak2, sequence (O60674 whole entry, looked up): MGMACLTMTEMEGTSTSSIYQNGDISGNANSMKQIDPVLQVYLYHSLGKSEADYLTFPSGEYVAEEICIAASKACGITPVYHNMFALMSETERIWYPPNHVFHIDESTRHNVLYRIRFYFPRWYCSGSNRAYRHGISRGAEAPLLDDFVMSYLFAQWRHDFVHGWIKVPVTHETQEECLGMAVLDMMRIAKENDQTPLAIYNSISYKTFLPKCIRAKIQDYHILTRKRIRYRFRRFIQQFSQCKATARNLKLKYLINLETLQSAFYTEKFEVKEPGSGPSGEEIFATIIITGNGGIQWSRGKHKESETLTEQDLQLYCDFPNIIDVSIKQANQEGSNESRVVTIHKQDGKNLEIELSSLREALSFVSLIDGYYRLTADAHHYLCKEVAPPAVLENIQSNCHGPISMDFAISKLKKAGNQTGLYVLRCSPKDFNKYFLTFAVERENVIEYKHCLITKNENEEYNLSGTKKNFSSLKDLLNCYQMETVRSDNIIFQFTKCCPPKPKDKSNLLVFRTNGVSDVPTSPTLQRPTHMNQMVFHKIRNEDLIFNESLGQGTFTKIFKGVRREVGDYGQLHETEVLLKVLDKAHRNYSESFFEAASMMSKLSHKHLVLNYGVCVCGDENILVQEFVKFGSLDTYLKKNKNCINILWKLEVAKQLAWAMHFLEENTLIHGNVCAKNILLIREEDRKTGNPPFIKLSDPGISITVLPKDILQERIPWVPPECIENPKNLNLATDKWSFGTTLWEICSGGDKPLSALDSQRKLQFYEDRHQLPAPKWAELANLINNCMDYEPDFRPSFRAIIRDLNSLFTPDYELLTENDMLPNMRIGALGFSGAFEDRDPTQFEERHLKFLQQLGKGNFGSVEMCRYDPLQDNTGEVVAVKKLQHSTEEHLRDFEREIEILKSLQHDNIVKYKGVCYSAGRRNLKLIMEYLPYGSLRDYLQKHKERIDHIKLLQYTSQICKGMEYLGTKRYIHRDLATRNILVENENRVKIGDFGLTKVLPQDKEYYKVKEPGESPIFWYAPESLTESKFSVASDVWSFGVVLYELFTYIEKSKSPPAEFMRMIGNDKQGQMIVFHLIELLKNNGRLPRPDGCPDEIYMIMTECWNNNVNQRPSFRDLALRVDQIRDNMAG
FGFR3, sequence (P22607 whole entry, looked up): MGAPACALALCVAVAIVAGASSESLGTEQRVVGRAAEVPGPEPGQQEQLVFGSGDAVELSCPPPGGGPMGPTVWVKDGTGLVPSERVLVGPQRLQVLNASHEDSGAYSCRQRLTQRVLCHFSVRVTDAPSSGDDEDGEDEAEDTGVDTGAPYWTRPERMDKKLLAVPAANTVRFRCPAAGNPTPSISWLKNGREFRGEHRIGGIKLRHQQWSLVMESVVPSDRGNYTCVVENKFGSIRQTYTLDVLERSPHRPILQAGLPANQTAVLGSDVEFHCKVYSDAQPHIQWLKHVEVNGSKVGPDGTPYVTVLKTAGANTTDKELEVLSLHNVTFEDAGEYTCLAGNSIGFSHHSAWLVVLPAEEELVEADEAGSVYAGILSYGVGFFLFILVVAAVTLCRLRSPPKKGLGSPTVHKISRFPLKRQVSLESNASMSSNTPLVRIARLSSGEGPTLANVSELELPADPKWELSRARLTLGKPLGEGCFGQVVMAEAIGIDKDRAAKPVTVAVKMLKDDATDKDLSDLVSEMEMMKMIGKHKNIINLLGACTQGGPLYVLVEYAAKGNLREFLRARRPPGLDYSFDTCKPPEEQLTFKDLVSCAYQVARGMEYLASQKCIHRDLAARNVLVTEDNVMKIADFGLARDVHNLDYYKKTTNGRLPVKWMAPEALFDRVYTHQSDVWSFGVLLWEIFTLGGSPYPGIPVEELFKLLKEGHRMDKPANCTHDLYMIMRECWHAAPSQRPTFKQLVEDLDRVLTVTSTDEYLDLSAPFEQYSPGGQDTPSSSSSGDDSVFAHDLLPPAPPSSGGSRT
EPHB2, sequence (P29323 whole entry, looked up): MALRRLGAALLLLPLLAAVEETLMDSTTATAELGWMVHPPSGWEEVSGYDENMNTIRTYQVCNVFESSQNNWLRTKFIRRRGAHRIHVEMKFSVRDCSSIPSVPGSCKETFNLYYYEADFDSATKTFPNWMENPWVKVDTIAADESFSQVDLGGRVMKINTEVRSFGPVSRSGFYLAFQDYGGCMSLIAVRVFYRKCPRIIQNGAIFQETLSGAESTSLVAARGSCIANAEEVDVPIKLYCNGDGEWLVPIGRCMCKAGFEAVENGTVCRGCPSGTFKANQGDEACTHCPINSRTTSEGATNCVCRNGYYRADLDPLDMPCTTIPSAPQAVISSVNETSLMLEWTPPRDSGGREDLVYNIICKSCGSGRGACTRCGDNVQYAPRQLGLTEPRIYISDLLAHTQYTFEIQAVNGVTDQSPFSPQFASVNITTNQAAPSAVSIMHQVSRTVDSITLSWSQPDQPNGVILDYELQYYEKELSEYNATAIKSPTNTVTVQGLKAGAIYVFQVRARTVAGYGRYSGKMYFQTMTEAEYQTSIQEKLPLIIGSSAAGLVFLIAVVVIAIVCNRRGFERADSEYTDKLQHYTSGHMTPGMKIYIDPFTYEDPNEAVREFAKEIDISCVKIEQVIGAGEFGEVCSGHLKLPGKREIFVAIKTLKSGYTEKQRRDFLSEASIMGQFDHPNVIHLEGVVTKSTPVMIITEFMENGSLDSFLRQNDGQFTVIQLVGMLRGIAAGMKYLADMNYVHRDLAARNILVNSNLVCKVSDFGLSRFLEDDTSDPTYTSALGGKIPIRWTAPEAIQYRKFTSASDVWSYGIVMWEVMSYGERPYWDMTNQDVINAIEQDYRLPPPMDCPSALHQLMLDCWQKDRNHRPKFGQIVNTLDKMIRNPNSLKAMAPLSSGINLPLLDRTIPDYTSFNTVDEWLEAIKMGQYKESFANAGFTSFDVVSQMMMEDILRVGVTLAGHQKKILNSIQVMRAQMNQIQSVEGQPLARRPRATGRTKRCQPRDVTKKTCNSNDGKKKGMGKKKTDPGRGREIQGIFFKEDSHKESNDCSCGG
EPHB1, sequence (P54762 whole entry, looked up): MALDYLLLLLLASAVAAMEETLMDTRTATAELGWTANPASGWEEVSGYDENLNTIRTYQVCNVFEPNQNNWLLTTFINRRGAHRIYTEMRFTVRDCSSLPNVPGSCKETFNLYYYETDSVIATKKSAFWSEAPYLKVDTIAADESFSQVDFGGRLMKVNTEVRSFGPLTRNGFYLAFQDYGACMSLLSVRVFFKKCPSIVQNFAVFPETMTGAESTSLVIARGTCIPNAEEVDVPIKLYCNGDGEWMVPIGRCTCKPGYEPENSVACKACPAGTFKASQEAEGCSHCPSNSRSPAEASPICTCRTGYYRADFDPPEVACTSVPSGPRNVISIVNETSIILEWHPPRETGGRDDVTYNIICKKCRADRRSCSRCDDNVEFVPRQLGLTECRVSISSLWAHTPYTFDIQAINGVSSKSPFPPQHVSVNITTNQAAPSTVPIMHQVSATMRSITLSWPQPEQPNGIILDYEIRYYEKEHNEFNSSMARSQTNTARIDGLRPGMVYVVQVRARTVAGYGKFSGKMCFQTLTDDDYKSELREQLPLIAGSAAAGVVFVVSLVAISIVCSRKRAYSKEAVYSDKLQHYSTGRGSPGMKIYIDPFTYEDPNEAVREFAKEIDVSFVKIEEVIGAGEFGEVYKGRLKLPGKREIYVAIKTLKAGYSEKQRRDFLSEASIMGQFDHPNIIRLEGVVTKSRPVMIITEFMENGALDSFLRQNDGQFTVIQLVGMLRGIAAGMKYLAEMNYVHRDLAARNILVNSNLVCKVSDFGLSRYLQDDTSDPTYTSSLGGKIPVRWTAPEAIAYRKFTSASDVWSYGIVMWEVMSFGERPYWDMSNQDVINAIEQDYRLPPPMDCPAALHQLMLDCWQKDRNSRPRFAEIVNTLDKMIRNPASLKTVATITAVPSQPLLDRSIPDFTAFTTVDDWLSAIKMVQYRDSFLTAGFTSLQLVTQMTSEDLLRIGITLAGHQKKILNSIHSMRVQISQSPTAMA

| SH2 binding enrichment (Grb2 SH2) | SH2 binding enrichment (SHP2-C SH2) | SH2 binding enrichment (c-Src SH2) | Sequence | phosphorylation enrichment (AncSZ) | phosphorylation enrichment (EPHB1) | phosphorylation enrichment (EPHB2) | phosphorylation enrichment (FGFR1) | phosphorylation enrichment (FGFR3) | phosphorylation enrichment (Fer (mouse)) | phosphorylation enrichment (Fes) | phosphorylation enrichment (Fyn) | phosphorylation enrichment (Hck) | phosphorylation enrichment (Jak2) | phosphorylation enrichment (MERTK) | phosphorylation enrichment (c-Abl (mouse)) | phosphorylation enrichment (c-Src) |
| --- | --- | --- | --- | --- | --- | --- | --- | --- | --- | --- | --- | --- | --- | --- | --- | --- |
| 0.874 | 0.559 | 0.439 | SEDSEYFRAFE [CASQ2_Y178_K180R_YF] | 1.99 | 0.633 | 0.591 | 0.586 | 0.854 | 0.511 | 1.48 | 0.545 | 0.524 | 1.26 | 0.476 | 1.31 | 0.693 |
| 0.752 | 0.44 | 0.42 | SEKVVYRRFTE [NCF1_Y41] | 0.663 | 0.39 | 0.423 | 0.406 | 0.472 | 0.387 | 0.671 | 0.432 | 0.414 | 0.61 | 0.438 | 0.527 | 0.438 |
| 0.889 | 1.1 | 0.47 | SFPSFYTSHVQ [NEFL_Y443_YF] | 0.874 | 0.677 | 0.584 | 0.5 | 0.609 | 0.509 | 0.857 | 0.563 | 0.548 | 0.657 | 1.23 | 0.498 | 0.509 |
| 1.07 | 0.596 | 0.526 | SGDINYGQFAQ [PLCG1_Y210_T209N] | 0.727 | 0.478 | 0.63 | 0.289 | 0.548 | 0.423 | 0.683 | 0.554 | 0.65 | 0.631 | 0.387 | 0.874 | 0.647 |
| 0.801 | 0.465 | 0.383 | SGKSEYLLPVA [MYLK_Y611_R607G] | 1.08 | 0.486 | 0.424 | 0.456 | 0.554 | 0.45 | 0.89 | 0.453 | 0.362 | 0.721 | 0.397 | 1.17 | 0.453 |
| 0.697 | 1.65 | 0.567 | SHISGYATLRR [RAPH1_Y1226] | 0.941 | 0.374 | 0.391 | 0.392 | 0.562 | 0.399 | 0.753 | 0.392 | 0.4 | 0.628 | 0.438 | 0.43 | 0.382 |
| 0.789 | 0.747 | 1.7 | SIRYNYLLDVL [FGFR4_Y237] | 0.943 | 0.394 | 0.524 | 0.479 | 0.636 | 0.47 | 0.745 | 0.495 | 0.603 | 0.674 | 0.509 | 0.821 | 0.443 |
| 1.06 | 0.966 | 10 | SKHHLYSDLQT [PTCHD1_Y84_R82H] | 0.487 | 0.462 | 0.389 | 0.55 | 0.589 | 1.91 | 0.786 | 0.505 | 0.985 | 0.887 | 2.23 | 0.51 | 0.634 |
| 0.788 | 0.595 | 0.555 | SKKSTYQALLD [GANC_Y43] | 0.563 | 0.394 | 0.369 | 0.416 | 0.405 | 0.305 | 0.541 | 0.447 | 0.433 | 0.907 | 0.403 | 0.382 | 0.423 |
| 0.646 | 0.513 | 0.409 | SKNFTYIWWLN [PSG4_Y271_YF] | 1.18 | 0.675 | 0.611 | 0.498 | 0.884 | 0.508 | 1.36 | 0.416 | 0.435 | 1.26 | 0.391 | 0.78 | 0.402 |
| 0.913 | 0.754 | 0.546 | SKNSKCNAEST [PSEN1_Y315_Y315C] | 0.546 | 0.48 | 0.463 | 0.769 | 0.486 | 0.508 | 0.768 | 0.379 | 0.499 | 0.51 | 0.368 | 0.566 | 0.383 |
| 0.767 | 0.876 | 0.454 | SLALFYRKVFH [RBL1_Y792_YF] | 1.36 | 0.637 | 0.569 | 0.532 | 0.784 | 0.494 | 1.26 | 0.502 | 0.441 | 1.11 | 0.385 | 0.535 | 0.409 |
| 0.689 | 0.795 | 0.522 | SLALFYRKVYH [RBL1_Y792] | 1.23 | 0.667 | 0.643 | 0.575 | 0.776 | 0.566 | 1.23 | 0.481 | 0.518 | 1.14 | 0.408 | 0.593 | 0.379 |

| Sequence | SH2 binding enrichment (Grb2 SH2) | SH2 binding enrichment (SHP2-C SH2) | SH2 binding enrichment (c-Src SH2) | phosphorylation enrichment (AncSZ) | phosphorylation enrichment (EPHB1) | phosphorylation enrichment (EPHB2) | phosphorylation enrichment (FGFR1) | phosphorylation enrichment (FGFR3) | phosphorylation enrichment (Fer (mouse)) | phosphorylation enrichment (Fes) | phosphorylation enrichment (Fyn) | phosphorylation enrichment (Hck) | phosphorylation enrichment (Jak2) | phosphorylation enrichment (MERTK) | phosphorylation enrichment (c-Abl (mouse)) | phosphorylation enrichment (c-Src) |
| --- | --- | --- | --- | --- | --- | --- | --- | --- | --- | --- | --- | --- | --- | --- | --- | --- |
| SIKDKYVMALF [KCNH2_Y611_T613M_YF] | 1.06 | 0.845 | 0.699 | 0.664 | 0.405 | 0.491 | 0.535 | 0.574 | 0.385 | 0.888 | 0.429 | 0.496 | 0.721 | 0.447 | 0.558 | 0.393 |
| SIKDKYVTALY [KCNH2_Y611] | 0.747 | 0.581 | 0.437 | 0.639 | 0.463 | 0.403 | 0.387 | 0.472 | 0.389 | 0.72 | 0.489 | 0.785 | 0.597 | 0.506 | 0.507 | 0.575 |
| SIKDKYVTAVY [KCNH2_Y611_L615V] | 0.808 | 0.664 | 0.48 | 0.565 | 0.446 | 0.423 | 0.498 | 0.638 | 0.431 | 0.705 | 0.545 | 0.552 | 0.585 | 0.443 | 0.441 | 0.49 |
| SIKDKYVTVLF [KCNH2_Y611_A614V_YF] | 1.04 | 10.8 | 0.669 | 0.763 | 0.481 | 0.48 | 0.482 | 0.646 | 0.392 | 0.91 | 0.442 | 0.546 | 0.743 | 0.375 | 0.549 | 0.361 |
